Measured values as given in PMC4226571, “The E6AP Binding Pocket of the HPV16 E6 Oncoprotein Provides a Docking Site for a Small Inhibitory Peptide Unrelated to E6AP, Indicating Druggability of E6” (PLoS ONE, 2014).

B1: wildtype HPV31 E6 fused to the VP16 transcriptional activation domain [human papillomavirus type 31] / pep11** fused to the GAL4 DNA binding domain (parent complex)
chain 1: MFKNPAERPRKLHELSSALEIPYDELRLNCVYCKGQLTETEVLDFAFTDLTIVYRDDTPHGVCTKCLRFYSKVSEFRWYRYSVYGTTLEKLTNKGICDLLIRCITCQRPLCPEEKQRHLDKKKRFHNIGGRWTGRCIACWRRPRTETQV
chain 2: KEKEEYNSNCSCIACIGLI

Variants of: B1
Experiment: mammalian two-hybrid; E6 constructs contain an additional flag-tag between E6 and the VP16-AD; RLA relative to pep11**-GAL4-BD + empty pACT set at 1.0; read off a plot

Variant | response [RLA]
chain 1 W78A | ~1.2
chain 1 W78H | ~39
